Experimental data as given in patent US20240288416.

Tests used:
[1] = target: green fluorescent protein (GFP) carrying an ssrA tag at the C-terminus
substrate 1 (S1) = target: T1, substrate 1 (S1)
T1 chain: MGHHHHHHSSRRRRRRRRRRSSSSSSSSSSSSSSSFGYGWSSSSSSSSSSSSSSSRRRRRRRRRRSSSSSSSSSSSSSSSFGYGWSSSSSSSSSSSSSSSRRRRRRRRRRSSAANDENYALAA

B1: Valosin-containing protein-like ATPase of Thermoplasma acidophilum (protein)
chain: MESNNGIILRVAEANSTDPGMSRVRLDESSRRLLDAEIGDVVEIEKVRKTVGRVYRARPEDENKGIVRIDSVMRNNCGASIGDKVKVRKVRTEIAKKVTLAPIIRKDQRLKFGEGIEEYVQRALIRRPMLEQDNISVPGLTLAGQTGLLFKVVKTLPSKVPVEIGEETKIEIREEPASEVLEEVSRISYEDIGGLSEQLGKIREMIELPLKHPELFERLGITPPKGVILYGPPGTGKTLIARAVANESGANFLSINGPEIMSKYYGQSEQKLREIFSKAEETAPSIIFIDEIDSIAPKREEVQGEVERRVVAQLLTLMDGMKERGHVIVIGATNRIDAIDPALRRPGRFDREIEIGVPDRNGRKEILMIHTRNMPLGMSEEEKNKFLEEMADYTYGFVGADLAALVRESAMNALRRYLPEIDLDKPIPTEILEKMVVTEDDFKNALKSIEPSSLREVMVEVPNVHWDDIGGLEDVKREIKETVELPLLKPDVFKRLGIRPSKGFLLYGPPGVGKTLLAKAVATESNANFISIKGPEVLSKWVGESEKAIREIFKKAKQVAPAIVFLDEIDSIAPRRGTTSDSGVTERIVNQLLTSLDGIEVMNGVVVIGATNRPDIMDPALLRAGRFDKLIYIPPPDKEARLSILKVHTKNMPLAPDVDLNDIAQRTEGYVGADLENLCREAGMNAYRENPDATSVSQKNFLDALKTIRPSVDEEVIKFYRTLSETMSKSVSERRKQLQDQGLYL
average dwell time of GFP blockades at 6.0 mM ATP [1]: decreased 10-fold to 2.4±1.7 ms
average dwell time of current blockades (inactive proteasome-nanopore, VAT, ATP 2.0 mM) [1]: average dwell time is 22.1±20.2 ms
Ires % during VAT-assisted translocation through the inactive proteasome-nanopore (VAT 20.0 µM, ATP 2.0 mM) (substrate 1 (S1)): Ires %=83.81±0.11
average dwell time of VAT-assisted translocation events (inactive proteasome-nanopore, ATP 2.0 mM) (substrate 1 (S1)): average dwell time is 5.8±3.9 ms
